Laboratory results: patent US9518084B2, “Epitope tag for affinity-based applications” (VIB VZW, priority 2010, dated 2016)

Key:
[1] = target: Peptide N-YEPEA-C (SEQ ID NO: 11), residues Y136-A140 of full-length α-synuclein (Homo sapiens, UniProt P37840); test: Isothermal titration calorimetry (ITC) of NbSyn2 binding to C-terminal peptide fragment of α-synuclein
Description: Calorimetric measurements were recorded using a MCS-ITC calorimeter (MicroCal, LLC, Northampton, Mass., USA). […] Both proteins were dialyzed prior to measurements in exactly the same buffer containing 10 mM phosphate, 150 mM sodium chloride at a pH of 7.4. Each injection was performed every four minutes at the desired temperature. […] The thermodynamic analysis was performed using the Microcal analysis software (Origin 7.0) with a 1:1 binding model. The temperature dependence of ΔH, allowed the calculation of ΔCp through the relationship ΔCp=δΔH/δT. The contribution of protonation to the ΔH was evaluated using a 10 mM Tris-HCL buffer 100 mM NaCl at pH 7.4.

[2] = test system: EPEA (SEQ ID NO:1)-tagged Rev protein; test: In vivo detection of EPEA-tagged Rev in transfected HeLa cells by confocal microscopy; assay type: cell-based, HIV; conditions: nanobody fused to mKO1 or GFP, GYQDYEPEA and EPEA tags
Excerpt: In another set of experiments, we explored the use of the EPEA (SEQ ID NO:1) tag to detect/visualize the expression of recombinant proteins within a (living) eukaryotic cell. […] Cells that are double-transfected with Rev-[sequence] (SEQ ID NO:10) or Rev-[sequence]
The two different tags [sequence] (SEQ ID NO:2) and EPEA (SEQ ID NO:1) were C-terminal fused to Rev by PCR using Takara Ex Taq polymerase (TAKARA BIO INC).
HeLa, human epithelial cells were maintained using standard procedures until confluent in DMEM medium with 10% fetal calf serum. For transfection of plasmid DNA in HeLa, cells were harvested by a Trypsin/EDTA treatment, counted and plated onto glass bottom microwell dishes (MatTek corporation). Transfections were preformed according to manufacturer's manual: the 4×10^5 cells were seeded in a 35 mm dish. […]
Transfected HeLa cells were imaged with a laser scanning SP5 confocal microscope (Leica Microsystems) equipped with an AF 6000 microscope and an AOBS, using a HCX PL APO×63 (NA 1.2) water immersion objective magnification. GFP was monitored with the Ar laser using the 488-nm line for excitation, and emission was detected between 492 and 570 nm. mKusabira orange fluorescent protein (mKO) was imaged using the DPSS-561 nm laser for excitation, and emission was detected between 570 and 675 nm.

**Q.** How did the Kd ([1]; 293.1 K) turn out when “NbSyn2: Nanobody that specifically binds to α-synuclein, 126 amino acids, SEQ ID NO:21” was run?
**A.** 240 ± 26 nM

**Q.** And the Kd ([1]; 298.1 K)?
**A.** 190 ± 30 nM

**Q.** What about the Kd ([1]; 303.1 K) of the same substance?
**A.** 460 ± 110 nM

**Q.** What about the Kd ([1]; 310.1 K) of the same substance?
**A.** 850 ± 130 nM

**Q.** What about the “Recognition of tagged Rev in double-transfected cells (colocalization in the nucleus)” value [2] of the same substance?
**A.** recognized in vivo
